Measurements from PMC7005851.

Columns and labels:
[1] = molecular target: T1, *^#H chain of ΔLd-6C407 IgG*^#H*^#L (WT VH, all C-region Cys to Ser); assay: sandwich ELISA (anti-human Cκ capture); conditions: chain shown with the change; lysates of HEK293 transfectants; empty vector est. 0.15; parent: est. 1.9; read off a plot
T1 chain: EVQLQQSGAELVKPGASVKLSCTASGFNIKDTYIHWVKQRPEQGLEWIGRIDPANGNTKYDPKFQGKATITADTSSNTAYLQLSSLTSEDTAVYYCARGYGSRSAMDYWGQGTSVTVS

[2] = molecular target: *H chain of ΔLd-3D8 IgG1 variants ΔLd-*HL and ΔLd-*H*L (hinge Cys11 and Cys14 to Ser); assay: sandwich ELISA (Protein L capture, AP-conjugated anti-human IgG/Fc detection); conditions: chain shown with the change; no heat; lysate of ΔLd-3D8 *H*L transfectants; empty vector est. 0.20; parent: est. 2.2; read off a plot
[3] = molecular target: *^#H chain of ΔLd-3D8 IgG*^#H*^#L (WT VH, all C-region Cys to Ser); assay: sandwich ELISA (anti-human Cκ capture); conditions: chain shown with the change; lysates of HEK293 transfectants; empty vector est. 0.15; parent: est. 1.7; read off a plot
[4] = molecular target: T2, *^#H chain of ΔLd-2C281 IgG*^#H*^#L (WT VH, all C-region Cys to Ser); assay: sandwich ELISA (anti-human Cκ capture); conditions: chain shown with the change; lysates of HEK293 transfectants; empty vector est. 0.15; parent: est. 1.4; read off a plot
T2 chain: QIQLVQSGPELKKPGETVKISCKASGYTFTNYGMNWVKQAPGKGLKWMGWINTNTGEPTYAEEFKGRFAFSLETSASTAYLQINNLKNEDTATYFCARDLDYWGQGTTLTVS

B1: m6 (L) and m5 (H), WT ΔLd-6C407 IgG *#H*#L: all C-region Cys of inter- and intrachain disulfide bonds to Ser (residue numbers not printed) (protein)
chain: DIVLTQSPASLAVSLGQRATISCRASKSVSTSGYSYMLWYQQKPGQPPKLLIYLASNLESGVPARFSGSGSGTDFTLNIHPVEEEDAATYYCQHSRELPWTFGGGTKLEIK
B1 was tested, and the response (Abs at 405 nm) [1] was 0.15.

B2: m2 (L) and m1 (H), ΔLd-HL H:Cys11Ser (hinge); H:Cys14Ser (hinge); L:Cys107Ser (Cκ) (protein)
chain: DIVMSQSPSSLAVSAGEKVTMSCKSSQSLFNSRTRKNYLAWYQQKPGQSPKLLIYWASTRESGVPDRFTGSGPGTDFTLTISSVQAEDLAVYYCKQSYYHMYTFGSGTKLEIK
With B2 the response (Abs at 405 nm) [2] was 2.3.

B3: m2 (L) and m1 (H), WT ΔLd-3D8 IgG *#H*#L: all C-region Cys of inter- and intrachain disulfide bonds to Ser (residue numbers not printed) (protein)
chain: B2 chain
In the case of B3, the response (Abs at 405 nm) [3] is reported as 0.15.

B4: m4 (L) and m3 (H), WT ΔLd-2C281 IgG *#H*#L: all C-region Cys of inter- and intrachain disulfide bonds to Ser (residue numbers not printed) (protein)
chain: DVVMTQTPLSLPVSLGDQASISCRSSQSLVHSNGNTYFHWFLQKPGQSPKLLIYKVSNRFSGVPDRFSGSGSGTDFTLKISRVEAEDLGVYFCSQSTHVPYTFGGGTKLEIK
B4 gave a response (Abs at 405 nm) [4] of 0.15.
